The results in this text go back to article PMC3237570.

In this assay the target is Bbox1 domain of MID1. Put plainly: NMR titration; 1H-15N HSQC at 21°C, aqueous solution; 0.15 mM unlabeled alpha45 added to 0.3 mM 15N-labeled Bbox1 (Bbox1 to alpha45 1:0.5).

The substance “alpha45 (45-amino acid region of the C-terminus of alpha4, residues Glu236 to Leu280) (from UniProt P78318 236-280) (domain or fragment)” displayed a percent of Bbox1 bound to alpha45 (at 1:0.5) of 40 to 50% and a stoichiometry N of 1.

A word on the stoichiometry N: it is the number of molecules, sites or subunits per partner or assembly.
